Biological target: T1, ELFN1-myc (mouse) (UniProt Q8C8T7)
T1 sequence: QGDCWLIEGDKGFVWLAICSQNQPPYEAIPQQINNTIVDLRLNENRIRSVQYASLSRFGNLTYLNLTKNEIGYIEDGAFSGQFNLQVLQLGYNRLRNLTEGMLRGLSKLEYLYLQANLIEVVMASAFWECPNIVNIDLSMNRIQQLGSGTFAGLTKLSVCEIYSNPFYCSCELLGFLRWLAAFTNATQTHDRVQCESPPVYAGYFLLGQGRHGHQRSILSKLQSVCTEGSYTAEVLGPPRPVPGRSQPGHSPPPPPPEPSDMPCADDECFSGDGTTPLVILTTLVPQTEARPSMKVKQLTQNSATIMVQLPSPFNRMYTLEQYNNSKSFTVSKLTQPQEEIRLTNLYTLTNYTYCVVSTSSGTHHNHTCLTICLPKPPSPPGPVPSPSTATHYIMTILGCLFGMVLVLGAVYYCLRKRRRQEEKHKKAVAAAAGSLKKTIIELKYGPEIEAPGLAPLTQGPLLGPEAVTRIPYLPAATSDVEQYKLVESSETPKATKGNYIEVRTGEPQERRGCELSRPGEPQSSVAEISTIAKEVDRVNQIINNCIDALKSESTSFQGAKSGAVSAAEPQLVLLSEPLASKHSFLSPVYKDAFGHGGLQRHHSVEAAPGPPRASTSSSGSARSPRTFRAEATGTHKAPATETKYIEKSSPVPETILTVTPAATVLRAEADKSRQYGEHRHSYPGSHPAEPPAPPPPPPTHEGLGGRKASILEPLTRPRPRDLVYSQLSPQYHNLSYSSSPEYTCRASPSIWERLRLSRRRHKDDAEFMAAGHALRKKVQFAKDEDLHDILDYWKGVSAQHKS

B1: ELFN1Δ452-Venus (domain or fragment)
chain: QGDCWLIEGDKGFVWLAICSQNQPPYEAIPQQINNTIVDLRLNENRIRSVQYASLSRFGNLTYLNLTKNEIGYIEDGAFSGQFNLQVLQLGYNRLRNLTEGMLRGLSKLEYLYLQANLIEVVMASAFWECPNIVNIDLSMNRIQQLGSGTFAGLTKLSVCEIYSNPFYCSCELLGFLRWLAAFTNATQTHDRVQCESPPVYAGYFLLGQGRHGHQRSILSKLQSVCTEGSYTAEVLGPPRPVPGRSQPGHSPPPPPPEPSDMPCADDECFSGDGTTPLVILTTLVPQTEARPSMKVKQLTQNSATIMVQLPSPFNRMYTLEQYNNSKSFTVSKLTQPQEEIRLTNLYTLTNYTYCVVSTSSGTHHNHTCLTICLPKPPSPPGPVPSPSTATHYIMTILGCLFGMVLVLGAVYYCLRKRRRQEEKHKK
For B1, the cell membrane enrichment of ELFN1Δ452-Venus (membrane against proximal cytosolic pixel intensity) with co-expression of ELFN1-myc (median 92.50% under control conditions) was 129% and the percentage of cells with membrane enrichment of ELFN1Δ452-Venus when co-expressed with ELFN1-myc (0.000 without ELFN1-myc); live-cell confocal microscopy, HEK293 was 33.4%.
